Assay results from US20060073572A1, “Cytokine structurally related to IL-17” (The Johns Hopkins University, priority 2001, published 2006).
“Also recorded” adds a separate entry of the source.

Experiments:
Type in all cases: cell-based, human
IL-6 = IL-6 expression in HUVECs (ELISA, RT-PCR); settings: ML-1 10 and 100 ng/ml, 24 and 48 hours, ELISA
Experimental: (§1) FIG. 5. Analysis of IL-6 (FIG. 5A) and IL-8 (FIG. 5B) expression in primary bronchial epithelial cells (PBECs) and human umbilical vein endothelial cells (HUVECs) stimulated by ML-1. The IL-6 and IL-8 protein release in the supernatant was determined by ELISA as described in Example 8. The results were expressed as mean+SD (n=6). *p<0.05 was considered significant vs control.
(§2) FIG. 7A-7D. Effect of PD98059 on IL-6 (FIG. 7A) and IL-8 (FIG. 7B) protein production in PBECs and HUVECs. The cells were preincubated with varying concentrations of PD98059, SB202190, or DMSO vehicle control for 1 hour, followed by stimulation with ML-1 (100 ng/ml) for 24 hours. The results are expressed as the mean+SD (n=6). *P<0.05 when compared to cultures without the addition of PD98059. FIGS. 7C and 7D. Semi-quantitative analysis of gene expression for IL-6 (FIG. 7C) and IL-8 (FIG. 7D) by RT-PCR. The cells were preincubated as described above and treated with ML-1 for 4 hours. RT-PCR was performed as described in Example 8. The results shown are representative of three separate experiments.
(§3) Human umbilical vein endothelial cells (HUVECs) were obtained from Clonetics and cultured in endothelial cell growth media (EGM; Clonetics) containing 12 μg/ml bovine brain extract, 10 ng/ml EGF, 1 μg/ml hydrocortisone, 50 μg/ml gentimicin, 50 ng/ml amphotericin B, and 5% FBS amphotericin-B (Clonetics).
(§4) PBECs and HUVECs were treated with ML-1 100 ng/ml of ML-1 for various time points. Total RNA was extracted using RNeasy (Qiagen) from 1×10^6 cells 4 hours after stimulation or exchange of media. […]
(§5) The amplification reaction was performed for 23 cycles with denaturation at 94° C. for 45 seconds, annealing at 56° C. for 45 seconds, and extension at 72° C. for 45 seconds. PCR products were detected by ethidium bromide staining and normalized by the intensity of an amplified housekeeping gene, G3PDH (see above). […] IL-6 and IL-8 protein levels in the collected supernatants were determined with a commercially available ELISA kit (Biosource, Camarillo, Calif.) according to the manufacturer's instructions.

IL-8 = IL-8 expression in HUVECs (ELISA, RT-PCR); settings: ML-1 10 and 100 ng/ml, 24 and 48 hours, ELISA
Experimental: as §1, §2, §3, §4, §5

ERK1/2 [1] = experiment: Western blotting of ERK1/2 phosphorylation in PBECs; settings: ML-1 100 ng/ml
Experimental: (§6) FIGS. 6A-6D. Kinetic activation of ERK1/2 by ML-1 in PBECs (FIG. 6A) and HUVECs (FIG. 6B). The cells were incubated with or without ML-1 (100 ng/ml) for different time points as indicated. Western blotting analysis was performed by using antibodies against different MAP kinases as described in Example 8. FIGS. 6C and 6D. Effect of PD98059 on ML-1-induced phosphorylation of ERK1/2 in PBECs (FIG. 6C) and HUVECs (FIG. 6D). The cells were preincubated with PD98059 ([…]) or DMSO vehicle control for 1 hour, followed by stimulation of PBECs and HUVECs with medium or ML-1 for 20 minutes or 10 minutes, respectively. The results shown are representative of three separate experiments.
(§7) For analysis of activation of MAP kinases, PBECs were treated with IL-17 (100 ng/ml) for various time periods, with or without the MEK 1/2 inhibitor PD98059 ([…]; Calbiochem, La Jolla, Calif.) (15), the p38 inhibitor SB202190 (0.5-10 μM; ref. 16), or a vehicle control, DMSO (Me2SO) for 1 hour. […] Following the treatment, the cells were washed with ice-cold PBS. Cell pellets were immediately lysed in cold lysis buffer [20 mM Tris (pH 7.4), 4 mM EDTA, 2 mM EGTA, 1 mM PMSF, […] aprotinin, 200 mg/ml leupeptin, 50 mM NaF, 5 mM NaRP2O7, 1 mM Na3VO4, and 1% Nonidet P40; all purchased from Sigma]. Extracts (1×10^6 cell equivalents/lane) were suspended with an equal volume of 2× loading buffer [0.1 M Tris-HCl (pH 6.8)], 4% SDS, 0.005% bromophenol blue, and 20% glycerol) containing 2-ME (0.7 M) and subjected to 4-20% Tris-glycine gel electrophoresis (NOVEX, San Diego, Calif.). Gels were then transferred to PVDF membranes (BIO-RAD, Hercules, Calif.) with a Trans Blot apparatus (NOVEX). The membranes were immersed overnight in This-buffered saline/Tween 20 containing 5% nonfat dry skim milk (Carnation, Los Angeles, Calif.).
(§8) Immunoreactive proteins were detected using antibodies against various kinases and phosphorylated kinases. […] Western blotting detection reagents (Amersham) and Hyper ECL luminescence detection film (Amersham) were used. […]

ERK1/2 [2] = experiment: Western blotting of ERK1/2 phosphorylation in HUVECs; settings: ML-1 100 ng/ml
Experimental: as §6, §7, §8

B1: ML-1: new member of the IL-17 cytokine family, SEQ ID NO:2; His-tagged recombinant protein expressed in COS-7 cells and affinity purified (protein, listed as Homo sapiens)
chain: MKLDIGIINENQRVSMSRNIESRSTSPWNYTVTWDPNRYPSEVVQAQCRNLGCINAQGKEDISMNSVPIQQETLVVRRKHQGCSVSFQLEKVLVTVGCTCVTPVIHHVQ
modifications: His tag
- IL-6 production (IL-6): time-dependent increase; also recorded: significantly induced
- IL-8 production (IL-8): time-dependent increase; also recorded: significantly induced
- time of maximum phosphorylation of ERK1/2 (ERK1/2 [1]): 20 min
- time of return of ERK1/2 phosphorylation to baseline levels (ERK1/2 [1]): ≤ 60 min
- time of maximum phosphorylation of ERK1/2 (ERK1/2 [2]): 10 min
- time of return of ERK1/2 phosphorylation to baseline levels (ERK1/2 [2]): ≤ 60 min
